# ± gives the uncertainty stated by the source.
# B1: Far upstream element-binding protein 3, residues 75 to 150; numbered along this chain, Q96I24 (parent)
# chain: RTVITEEFKVPDKMVGFIIGRGGEQISRIQAESGCKIQIASESSGIPERPCVLTGTPESIEQAKRLLGQIVDRCRN
# Variants of: B1
# Assay: abundance fitness (aPCA) (normalised: wild type 0, dead -1); higher = more abundant; growth selection in yeast, the domain comes from the species named
# Settings: Homo sapiens
row,Variant,abundance fitness
1,E48F,-0.09 ± 0.046
2,E48V,-0.127 ± 0.029
3,E48D,0.001 ± 0.045
4,E48Y,-0.056 ± 0.057
5,E48S,-0.043 ± 0.033
6,E48M,-0.048 ± 0.038
7,E48R,-0.153 ± 0.029
8,E48W,-0.055 ± 0.032
9,E48L,-0.068 ± 0.031
10,E48I,-0.162 ± 0.054
11,E48A,-0.137 ± 0.031
12,E48C,-0.158 ± 0.041
13,E48P,-0.242 ± 0.042
14,E48N,-0.1 ± 0.06
15,E48T,-0.109 ± 0.036
16,E48Q,-0.108 ± 0.04
17,P47H,-0.028 ± 0.05
18,P47E,-0.037 ± 0.034
19,P47Y,-0.12 ± 0.058
20,P47N,-0.077 ± 0.054
21,P47W,-0.084 ± 0.032
22,P47V,-0.041 ± 0.03
23,P47C,-0.027 ± 0.041
24,P47M,-0.072 ± 0.038

row,Variant,abundance fitness
1,P47L,-0.043 ± 0.03
2,P47A,-0.03 ± 0.03
3,P47T,-0.063 ± 0.036
4,P47Q,-0.068 ± 0.039
5,P47K,-0.023 ± 0.039
6,P47G,-0.058 ± 0.025
7,P47S,0.024 ± 0.034
8,P47I,-0.021 ± 0.051
9,P47F,-0.096 ± 0.044
10,P47R,-0.065 ± 0.025
11,G45P,-0.067 ± 0.037
12,G45W,-0.15 ± 0.032
13,G45L,-0.124 ± 0.029
14,G45S,-0.051 ± 0.032
15,G45C,-0.094 ± 0.037
16,G45H,-0.065 ± 0.057
17,G45M,-0.101 ± 0.037
18,G45I,-0.158 ± 0.06
19,G45K,-0.093 ± 0.037
20,G45E,-0.052 ± 0.032
21,G45Q,-0.046 ± 0.038
22,G45R,-0.055 ± 0.026
23,G45D,-0.011 ± 0.041
24,G45N,-0.01 ± 0.068

row,Variant,abundance fitness
1,G45A,-0.041 ± 0.029
2,G45Y,-0.168 ± 0.051
3,S44T,-0.015 ± 0.039
4,S44F,-0.06 ± 0.062
5,S44E,-0.009 ± 0.034
6,S44N,-0.053 ± 0.054
7,S44I,-0.07 ± 0.086
8,S44R,-0.046 ± 0.028
9,S44V,-0.05 ± 0.031
10,S44L,-0.017 ± 0.034
11,S44P,-0.058 ± 0.043
12,S44Y,-0.086 ± 0.067
13,S44H,-0.013 ± 0.066
14,S44G,-0.021 ± 0.027
15,S44K,-0.005 ± 0.042
16,S44Q,0.006 ± 0.044
17,R49W,-0.271 ± 0.034
18,R49G,-0.129 ± 0.026
19,R49F,-0.195 ± 0.058
20,R49D,-0.251 ± 0.056
21,R49C,-0.091 ± 0.049
22,R49M,-0.169 ± 0.039
23,R49T,-0.044 ± 0.046
24,R49K,-0.099 ± 0.047

row,Variant,abundance fitness
1,R49I,-0.141 ± 0.07
2,R49S,-0.141 ± 0.036
3,R49L,-0.19 ± 0.032
4,R49V,-0.052 ± 0.03
5,R49A,-0.173 ± 0.037
6,R49P,-0.182 ± 0.048
7,R49N,-0.155 ± 0.059
8,R49Q,-0.081 ± 0.041
9,R49E,-0.159 ± 0.037
10,L53I,-0.016 ± 0.077
11,L53C,-0.191 ± 0.062
12,L53D,-0.96 ± 0.13
13,L53F,-0.354 ± 0.084
14,L53K,-1.12 ± 0.1
15,L53Q,-1.13 ± 0.12
16,L53G,-0.971 ± 0.044
17,L53A,-0.473 ± 0.045
18,L53M,-0.134 ± 0.045
19,L53E,-1.05 ± 0.073
20,L53H,-1.09 ± 0.35
21,L53P,-1.32 ± 0.17
22,I46P,0.016 ± 0.046
23,I46C,0.023 ± 0.048
24,I46S,-0.018 ± 0.035

row,Variant,abundance fitness
1,I46L,0.018 ± 0.031
2,I46G,0.011 ± 0.026
3,I46E,0.063 ± 0.033
4,I46W,-0.093 ± 0.033
5,I46V,-0.007 ± 0.029
6,I46Q,-0.007 ± 0.042
7,I46A,0.03 ± 0.033
8,I46H,0.02 ± 0.066
9,I46D,-0.061 ± 0.046
10,I46R,-0.046 ± 0.027
11,I46N,0.031 ± 0.056
12,I46T,0.032 ± 0.043
13,I46F,-0.023 ± 0.053
14,I46K,-0.003 ± 0.043
15,I46M,-0.053 ± 0.04
16,C51W,-0.147 ± 0.034
17,C51L,-0.062 ± 0.035
18,C51F,-0.009 ± 0.061
19,C51M,-0.068 ± 0.043
20,C51E,-0.924 ± 0.06
21,C51N,-0.634 ± 0.091
22,C51H,-0.475 ± 0.092
23,C51S,-0.366 ± 0.04
24,C51D,-0.633 ± 0.067

row,Variant,abundance fitness
1,C51V,-0.009 ± 0.033
2,C51P,-0.671 ± 0.066
3,C51A,-0.075 ± 0.036
4,C51T,-0.108 ± 0.043
5,C51G,-0.206 ± 0.028
6,C51R,-0.926 ± 0.042
7,C51Y,-0.311 ± 0.065
8,C51Q,-0.688 ± 0.066
9,V52H,-0.064 ± 0.061
10,V52F,-0.107 ± 0.061
11,V52N,-0.133 ± 0.056
12,V52Y,-0.115 ± 0.056
13,V52L,-0.023 ± 0.033
14,V52M,-0.039 ± 0.046
15,V52E,-0.073 ± 0.037
16,V52R,-0.072 ± 0.029
17,V52T,-0.044 ± 0.038
18,V52A,-0.029 ± 0.033
19,V52P,-0.931 ± 0.069
20,V52D,-0.16 ± 0.049
21,V52Q,0.043 ± 0.043
22,V52C,-0.093 ± 0.051
23,V52S,-0.005 ± 0.036
24,V52I,-0.034 ± 0.057

row,Variant,abundance fitness
1,P50T,-0.053 ± 0.035
2,P50R,-0.06 ± 0.026
3,P50N,0.01 ± 0.052
4,P50D,-0.079 ± 0.045
5,P50C,-0.054 ± 0.047
6,P50Y,-0.113 ± 0.048
7,P50L,-0.043 ± 0.03
8,P50A,-0.042 ± 0.031
9,P50V,-0.031 ± 0.03
10,P50K,-0.029 ± 0.036
11,P50E,-0.01 ± 0.031
12,P50H,-0.04 ± 0.05
13,P50S,-0.046 ± 0.031
14,P50F,-0.119 ± 0.052
15,P50G,-0.014 ± 0.026
16,P50M,-0.04 ± 0.038
17,P50I,0.004 ± 0.05
18,S43W,-0.155 ± 0.038
19,S43Q,-0.055 ± 0.045
20,S43N,-0.125 ± 0.098
21,S43P,0.018 ± 0.051
22,S43V,-0.057 ± 0.032
23,S43R,-0.079 ± 0.03
